In patent publication EP1244779B1:

What was measured:
Assay in all cases: cell-based or functional assay
[1] = target: Savinase (subtilisin 309 from B. lentus) (B. lentus) (UniProt P29600)
[2] = target: subtilisin 309 variant A98AI+A98G+S99H+G100S+S101A (B. lentus) (UniProt P29600)
[3] = target: subtilisin 309 variant A98AT + Y167A + R170S + A194P (B. lentus) (UniProt P29600)
[4] = target: subtilisin 309 variant S99SD (B. lentus) (UniProt P29600)
[5] = target: subtilisin 309 variant S99SD + M222S (B. lentus) (UniProt P29600)
[6] = target: subtilisin 309 variant S99SD + N76D + A194P + A230V (B. lentus) (UniProt P29600)
[7] = target: subtilisin 309 variant S99SD + S99A (B. lentus) (UniProt P29600)
[8] = target: subtilisin 309 variant S99SD + S99A + A133E (B. lentus) (UniProt P29600)
[9] = target: subtilisin 309 variant S99SD + S99A + L217F + A228V + A230V (B. lentus) (UniProt P29600)
[10] = target: subtilisin 309 variant S99SD + S99A + L217LP (B. lentus) (UniProt P29600)
[11] = target: subtilisin 309 variant S99SD + S99A + L42LN (B. lentus) (UniProt P29600)
[12] = target: subtilisin 309 variant S99SD + S99A + P129PD (B. lentus) (UniProt P29600)
[13] = target: subtilisin 309 variant S99SD + S99A + P129PR (B. lentus) (UniProt P29600)
[14] = target: subtilisin 309 variant S99SD + S99A + P131T (B. lentus) (UniProt P29600)
[15] = target: subtilisin 309 variant S99SD + S99A + S216SDP (B. lentus) (UniProt P29600)
[16] = target: subtilisin 309 variant S99SD + S99A + S216SP (B. lentus) (UniProt P29600)
[17] = target: subtilisin 309 variant S99SD + S99A + T143K (B. lentus) (UniProt P29600)
[18] = target: subtilisin 309 variant S99SE (B. lentus) (UniProt P29600)
[19] = target: subtilisin 309 variant S99SN (B. lentus) (UniProt P29600)
[20] = target: subtilisin 309 variant S99SQ + S99T (B. lentus) (UniProt P29600)
[21] = target: subtilisin 309 variant S99SR + S99T (B. lentus) (UniProt P29600)

## trypsin inhibitor type IV-0 (Ovo-inhibitor) (from UniProt P10184 69-517)
[1]
  Residual Activity (%): < 5%
[2]
  Residual Activity (%): 22%
[3]
  Residual Activity (%): 88%
[4]
  Residual Activity (%): 25%
[5]
  Residual Activity (%): 25%
[6]
  Residual Activity (%): 18.4%
[7]
  Residual Activity (%): 27.3%
[8]
  Residual Activity (%): 39%
[9]
  Residual Activity (%): 12%
[10]
  Residual Activity (%): 97%
[11]
  Residual Activity (%): 69.2%
[12]
  Residual Activity (%): 50%
[13]
  Residual Activity (%): 21%
[14]
  Residual Activity (%): 35.6%
[15]
  Residual Activity (%): 35%
[16]
  Residual Activity (%): 29.2%
[17]
  Residual Activity (%): 23%
[18]
  Residual Activity (%): 27%
[19]
  Residual Activity (%): 19%
[20]
  Residual Activity (%): 25%
[21]
  Residual Activity (%): 67.7%
